Legend:
Grb2 SH2 = Grb2 SH2 (UniProt P62993); assay: SH2 binding enrichment of the phosphorylated peptide, bacterial display (enrichment ratio); higher = better substrate or ligand; peptides without Tyr show the background
c-Src SH2 = assay: as above
SHP2-C SH2 = assay: as above
FGFR3 = FGFR3 (UniProt P22607); assay: phosphorylation enrichment, bacterial display (enrichment ratio); higher = better substrate or ligand; peptides without Tyr show the background
Fyn = Fyn (UniProt P06241); assay: as above
Jak2 = Jak2 (UniProt O60674); assay: as above
AncSZ = assay: as above
EPHB1 = EPHB1 (UniProt P54762); assay: as above
Sequence of EPHB1 (P54762 whole entry, looked up): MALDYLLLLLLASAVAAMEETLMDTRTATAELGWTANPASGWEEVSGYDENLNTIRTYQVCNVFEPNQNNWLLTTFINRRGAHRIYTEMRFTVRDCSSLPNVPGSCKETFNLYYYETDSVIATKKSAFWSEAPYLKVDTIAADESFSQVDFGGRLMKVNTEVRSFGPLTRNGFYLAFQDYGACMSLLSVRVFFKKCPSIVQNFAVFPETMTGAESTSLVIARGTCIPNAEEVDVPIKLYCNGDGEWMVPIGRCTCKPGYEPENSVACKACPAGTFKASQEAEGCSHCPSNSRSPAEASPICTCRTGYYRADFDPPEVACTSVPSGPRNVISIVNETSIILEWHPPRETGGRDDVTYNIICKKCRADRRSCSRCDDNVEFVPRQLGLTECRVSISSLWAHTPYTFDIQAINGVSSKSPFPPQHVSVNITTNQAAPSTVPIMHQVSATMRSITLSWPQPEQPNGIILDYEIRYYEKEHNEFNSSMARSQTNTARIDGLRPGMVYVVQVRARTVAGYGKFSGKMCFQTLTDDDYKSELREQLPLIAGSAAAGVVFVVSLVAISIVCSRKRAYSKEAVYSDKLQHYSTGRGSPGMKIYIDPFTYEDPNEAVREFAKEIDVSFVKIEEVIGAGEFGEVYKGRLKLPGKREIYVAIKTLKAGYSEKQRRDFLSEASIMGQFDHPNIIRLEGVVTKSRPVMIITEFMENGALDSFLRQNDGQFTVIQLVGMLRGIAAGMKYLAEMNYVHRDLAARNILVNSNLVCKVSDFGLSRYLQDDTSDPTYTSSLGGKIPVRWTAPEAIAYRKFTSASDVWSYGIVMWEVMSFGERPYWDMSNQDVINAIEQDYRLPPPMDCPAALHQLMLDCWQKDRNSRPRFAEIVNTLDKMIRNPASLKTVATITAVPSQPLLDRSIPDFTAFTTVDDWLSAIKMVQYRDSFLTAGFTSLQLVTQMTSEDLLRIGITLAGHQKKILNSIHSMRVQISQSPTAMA

c-Src = assay: as above
Fes = Fes (UniProt P07332); assay: as above
Sequence of Fes (P07332 whole entry, looked up): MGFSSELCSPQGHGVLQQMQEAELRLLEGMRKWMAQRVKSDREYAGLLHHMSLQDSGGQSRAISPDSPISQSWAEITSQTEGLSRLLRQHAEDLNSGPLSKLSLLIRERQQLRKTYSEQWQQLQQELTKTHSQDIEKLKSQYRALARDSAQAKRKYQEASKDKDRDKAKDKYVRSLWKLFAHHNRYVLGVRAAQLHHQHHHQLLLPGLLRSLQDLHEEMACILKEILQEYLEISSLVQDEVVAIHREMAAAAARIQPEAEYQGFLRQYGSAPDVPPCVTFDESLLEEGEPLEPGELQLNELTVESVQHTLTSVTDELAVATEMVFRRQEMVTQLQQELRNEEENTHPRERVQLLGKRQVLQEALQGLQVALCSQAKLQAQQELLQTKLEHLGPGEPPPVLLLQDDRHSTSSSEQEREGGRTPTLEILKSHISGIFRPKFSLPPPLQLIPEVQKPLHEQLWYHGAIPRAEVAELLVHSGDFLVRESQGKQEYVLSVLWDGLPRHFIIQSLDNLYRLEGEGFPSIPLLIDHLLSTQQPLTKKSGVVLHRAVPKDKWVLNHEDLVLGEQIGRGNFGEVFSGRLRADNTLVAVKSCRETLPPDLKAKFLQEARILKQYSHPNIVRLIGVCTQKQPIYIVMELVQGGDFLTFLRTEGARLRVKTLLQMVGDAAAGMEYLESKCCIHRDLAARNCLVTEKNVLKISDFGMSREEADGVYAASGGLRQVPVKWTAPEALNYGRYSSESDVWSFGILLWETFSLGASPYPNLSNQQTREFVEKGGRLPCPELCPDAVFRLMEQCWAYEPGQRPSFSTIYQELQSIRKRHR

FGFR1 = FGFR1 (UniProt P11362); assay: as above
Sequence of FGFR1 (P11362 whole entry, looked up): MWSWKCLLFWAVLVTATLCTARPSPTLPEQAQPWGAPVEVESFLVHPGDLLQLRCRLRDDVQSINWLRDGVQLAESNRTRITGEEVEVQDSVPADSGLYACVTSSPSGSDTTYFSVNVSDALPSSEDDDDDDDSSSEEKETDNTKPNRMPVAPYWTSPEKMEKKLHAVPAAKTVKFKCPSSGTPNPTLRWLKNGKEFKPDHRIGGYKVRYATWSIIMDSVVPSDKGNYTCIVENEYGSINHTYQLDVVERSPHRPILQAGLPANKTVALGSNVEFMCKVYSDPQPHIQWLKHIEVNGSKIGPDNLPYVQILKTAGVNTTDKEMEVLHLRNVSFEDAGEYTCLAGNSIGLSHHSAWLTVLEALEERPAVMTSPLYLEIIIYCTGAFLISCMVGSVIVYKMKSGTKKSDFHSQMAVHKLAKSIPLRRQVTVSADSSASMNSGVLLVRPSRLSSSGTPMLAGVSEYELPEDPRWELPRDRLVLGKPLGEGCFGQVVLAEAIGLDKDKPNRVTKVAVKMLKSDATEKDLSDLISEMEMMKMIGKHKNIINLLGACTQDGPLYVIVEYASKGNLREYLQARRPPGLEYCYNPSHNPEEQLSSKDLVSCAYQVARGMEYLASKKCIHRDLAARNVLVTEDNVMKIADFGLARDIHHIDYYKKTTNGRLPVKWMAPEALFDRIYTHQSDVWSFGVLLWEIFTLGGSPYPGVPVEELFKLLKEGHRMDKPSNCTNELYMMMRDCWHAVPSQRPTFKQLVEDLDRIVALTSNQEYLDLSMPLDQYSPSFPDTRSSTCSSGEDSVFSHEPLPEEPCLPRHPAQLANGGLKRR

MERTK = MERTK (UniProt Q12866); assay: as above
Sequence of MERTK (Q12866 whole entry, looked up): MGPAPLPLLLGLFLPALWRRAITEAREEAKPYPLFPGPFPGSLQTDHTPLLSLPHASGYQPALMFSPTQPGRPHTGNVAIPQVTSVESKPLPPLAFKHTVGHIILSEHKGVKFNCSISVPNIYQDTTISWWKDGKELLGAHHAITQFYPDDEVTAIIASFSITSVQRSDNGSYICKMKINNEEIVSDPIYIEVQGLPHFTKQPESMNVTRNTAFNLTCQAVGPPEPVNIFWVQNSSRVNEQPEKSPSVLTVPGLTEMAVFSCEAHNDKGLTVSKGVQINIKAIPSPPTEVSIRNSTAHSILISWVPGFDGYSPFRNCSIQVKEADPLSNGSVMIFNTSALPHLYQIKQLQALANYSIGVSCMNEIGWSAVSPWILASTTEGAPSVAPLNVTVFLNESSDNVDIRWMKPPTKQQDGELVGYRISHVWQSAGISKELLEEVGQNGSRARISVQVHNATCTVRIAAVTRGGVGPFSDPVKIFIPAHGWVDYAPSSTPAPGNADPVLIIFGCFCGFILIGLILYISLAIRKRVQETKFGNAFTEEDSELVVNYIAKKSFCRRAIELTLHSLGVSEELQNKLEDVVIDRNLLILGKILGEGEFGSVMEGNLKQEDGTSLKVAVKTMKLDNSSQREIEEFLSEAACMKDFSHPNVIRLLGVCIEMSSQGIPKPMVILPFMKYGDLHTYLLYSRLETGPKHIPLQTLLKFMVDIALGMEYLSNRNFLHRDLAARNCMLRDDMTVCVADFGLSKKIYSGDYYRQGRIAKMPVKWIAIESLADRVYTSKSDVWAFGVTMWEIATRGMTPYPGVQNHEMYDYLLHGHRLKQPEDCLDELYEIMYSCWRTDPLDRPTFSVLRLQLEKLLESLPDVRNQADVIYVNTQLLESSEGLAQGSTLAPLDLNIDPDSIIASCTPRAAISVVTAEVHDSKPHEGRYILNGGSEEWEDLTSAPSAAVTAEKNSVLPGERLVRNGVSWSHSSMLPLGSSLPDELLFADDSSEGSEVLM

Hck = Hck (UniProt P08631); assay: as above
Sequence of Hck (P08631 whole entry, looked up): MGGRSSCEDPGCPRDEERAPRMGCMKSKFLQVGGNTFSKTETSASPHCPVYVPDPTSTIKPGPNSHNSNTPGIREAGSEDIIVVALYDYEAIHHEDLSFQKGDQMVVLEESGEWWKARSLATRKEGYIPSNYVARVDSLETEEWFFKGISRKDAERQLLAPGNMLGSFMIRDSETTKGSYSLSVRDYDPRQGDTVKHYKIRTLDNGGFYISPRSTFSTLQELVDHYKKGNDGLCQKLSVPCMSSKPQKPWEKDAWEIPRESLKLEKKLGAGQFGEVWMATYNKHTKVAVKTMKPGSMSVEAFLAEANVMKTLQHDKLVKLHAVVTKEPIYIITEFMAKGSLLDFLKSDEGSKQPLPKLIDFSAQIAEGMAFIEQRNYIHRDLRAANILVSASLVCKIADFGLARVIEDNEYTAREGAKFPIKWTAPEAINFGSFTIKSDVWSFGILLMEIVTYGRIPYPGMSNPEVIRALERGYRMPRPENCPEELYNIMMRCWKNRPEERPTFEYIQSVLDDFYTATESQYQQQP

Fer (mouse) = assay: as above
c-Abl (mouse) = assay: as above
EPHB2 = EPHB2 (UniProt P29323); assay: as above
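Wherever SH2 binding enrichment of the phosphorylated peptide, bacterial display is given: peptide library displayed on the E. coli surface as eCPX fusions, selected cells deep-sequenced, score is each peptide's frequency after selection divided by its frequency in the input.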
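Wherever phosphorylation enrichment, bacterial display is given: 11-residue human phosphosite peptides and single-mutation variants displayed on the E. coli surface, counted by deep sequencing, each peptide's frequency after selection divided by its frequency in the unselected input library; frequency after pTyr selection over input frequency; kinase dosed for 20-30% of maximal phosphorylation in three min.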

Sequence of FGFR3 (P22607 whole entry, looked up): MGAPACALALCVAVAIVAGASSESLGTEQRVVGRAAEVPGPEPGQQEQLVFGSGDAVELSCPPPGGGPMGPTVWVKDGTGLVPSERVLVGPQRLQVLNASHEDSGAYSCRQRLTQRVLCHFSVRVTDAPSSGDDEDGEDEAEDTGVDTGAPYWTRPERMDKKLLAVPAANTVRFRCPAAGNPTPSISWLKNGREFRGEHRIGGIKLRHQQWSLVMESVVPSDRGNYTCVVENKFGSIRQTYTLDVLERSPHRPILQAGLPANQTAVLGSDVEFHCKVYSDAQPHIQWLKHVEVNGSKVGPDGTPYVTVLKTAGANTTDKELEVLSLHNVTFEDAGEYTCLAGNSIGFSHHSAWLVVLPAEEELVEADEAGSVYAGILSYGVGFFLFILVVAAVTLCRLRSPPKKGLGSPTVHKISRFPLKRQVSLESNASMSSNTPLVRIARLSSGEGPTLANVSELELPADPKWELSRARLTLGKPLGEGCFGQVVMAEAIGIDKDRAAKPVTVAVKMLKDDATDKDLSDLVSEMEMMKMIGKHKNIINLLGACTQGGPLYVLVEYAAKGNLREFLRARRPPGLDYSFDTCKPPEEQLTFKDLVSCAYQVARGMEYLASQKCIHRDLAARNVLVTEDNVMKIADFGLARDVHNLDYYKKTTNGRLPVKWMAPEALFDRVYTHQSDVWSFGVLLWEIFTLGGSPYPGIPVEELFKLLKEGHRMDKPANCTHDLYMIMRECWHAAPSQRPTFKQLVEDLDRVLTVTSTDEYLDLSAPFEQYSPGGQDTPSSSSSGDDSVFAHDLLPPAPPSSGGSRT

Sequence | SH2 binding enrichment (Grb2 SH2) | SH2 binding enrichment (c-Src SH2) | SH2 binding enrichment (SHP2-C SH2) | phosphorylation enrichment (FGFR3) | phosphorylation enrichment (Fyn) | phosphorylation enrichment (Jak2) | phosphorylation enrichment (AncSZ) | phosphorylation enrichment (EPHB1) | phosphorylation enrichment (c-Src) | phosphorylation enrichment (Fes) | phosphorylation enrichment (FGFR1) | phosphorylation enrichment (MERTK) | phosphorylation enrichment (Hck) | phosphorylation enrichment (Fer (mouse)) | phosphorylation enrichment (c-Abl (mouse)) | phosphorylation enrichment (EPHB2)
SQSKGYRPKLY [SIPA1L3_Y1376_G1371S] | 0.701 | 0.447 | 0.662 | 0.33 | 0.344 | 0.496 | 0.719 | 0.336 | 0.408 | 0.651 | 0.424 | 0.51 | 0.361 | 0.364 | 0.519 | 0.337
SRGSSYNSIPK [FLNC_Y2625_S2626N] | 0.818 | 0.559 | 0.657 | 0.383 | 0.297 | 0.587 | 0.53 | 0.417 | 0.486 | 0.642 | 0.33 | 0.525 | 0.286 | 0.328 | 0.524 | 0.356
SSMIDYKPLEK [MYOC_Y479_N480K] | 1.19 | 0.476 | 0.565 | 0.425 | 0.434 | 0.495 | 0.562 | 0.357 | 0.384 | 0.538 | 0.377 | 0.441 | 0.413 | 0.322 | 0.459 | 0.421
SSNLYYRCLTA [CNGA3_Y169_W171C] | 0.702 | 0.425 | 0.611 | 1.13 | 0.493 | 1.5 | 1.05 | 0.563 | 0.63 | 1.12 | 0.949 | 1.89 | 0.807 | 0.571 | 0.896 | 0.766
SSQHRYSTPHT [RAF1_Y232_A237T] | 0.813 | 3.04 | 0.876 | 0.369 | 0.348 | 0.487 | 0.45 | 0.343 | 0.423 | 0.477 | 0.352 | 0.405 | 0.312 | 0.425 | 0.448 | 0.37
SSREGYVRHHN [FAM83B_Y433_S435R] | 0.956 | 0.592 | 0.573 | 0.473 | 0.377 | 0.672 | 0.482 | 0.309 | 0.38 | 0.435 | 0.416 | 0.409 | 0.387 | 0.501 | 0.451 | 0.445
SSSGAYGGGYG [KRT19_Y61] | 0.861 | 0.506 | 0.639 | 0.367 | 0.359 | 0.346 | 0.454 | 0.365 | 0.377 | 0.526 | 0.353 | 0.34 | 0.434 | 0.364 | 0.386 | 0.403
SSTASYFEAPG [RFX2_Y108] | 0.862 | 0.567 | 0.454 | 3.47 | 0.442 | 0.968 | 0.789 | 0.445 | 0.432 | 0.802 | 4.92 | 0.449 | 0.433 | 0.378 | 0.531 | 0.487
SSVKPYRVYCD [FGB_Y266] | 1.07 | 1.29 | 0.94 | 0.516 | 0.464 | 0.657 | 0.659 | 0.449 | 0.519 | 0.791 | 0.463 | 0.401 | 0.442 | 0.42 | 0.52 | 0.564
STEPQYQPGEN [SRC_Y530] | 0.814 | 0.558 | 0.712 | 0.476 | 0.383 | 0.681 | 0.825 | 0.516 | 0.38 | 0.817 | 0.478 | 0.356 | 0.499 | 0.392 | 0.564 | 0.566
STSKTYVISQT [RBBP6_Y87_R91Q] | 0.827 | 0.418 | 0.578 | 0.429 | 0.446 | 0.559 | 0.591 | 0.391 | 0.466 | 0.694 | 0.431 | 0.44 | 0.372 | 0.328 | 0.615 | 0.418
STTIHYNFMCN [TP53_Y234_C229S_YF] | 0.788 | 0.64 | 0.902 | 0.797 | 0.493 | 0.998 | 1 | 0.628 | 0.463 | 1.19 | 0.523 | 0.5 | 0.504 | 0.494 | 0.753 | 0.605
SVMAEYGLFRA [VSX2_Y219_G223R_YF] | 0.773 | 0.444 | 0.627 | 0.538 | 6.8 | 0.505 | 0.77 | 0.481 | 6.04 | 0.661 | 0.514 | 0.51 | 5.72 | 0.513 | 0.589 | 0.513
SVMAEYGLYAA [VSX2_Y219_G223A] | 0.838 | 0.511 | 0.776 | 0.632 | 7.34 | 0.579 | 0.997 | 3.29 | 5.12 | 0.798 | 0.654 | 2.4 | 7.6 | 5.85 | 0.799 | 8.04
SVNCTYSPALN [TP53_Y126_T123N] | 0.722 | 0.381 | 0.544 | 0.725 | 0.735 | 0.77 | 0.957 | 0.654 | 0.849 | 1.01 | 0.484 | 0.478 | 0.851 | 0.521 | 0.622 | 0.613
SVTCTYPPALN [TP53_Y126_S127P] | 0.865 | 0.448 | 0.617 | 0.578 | 0.448 | 1.07 | 0.886 | 0.471 | 0.485 | 0.873 | 0.502 | 0.477 | 0.557 | 0.473 | 0.97 | 0.578
SVTCTYSLALN [TP53_Y126_P128L] | 0.956 | 0.503 | 0.781 | 0.802 | 0.78 | 1.13 | 1.21 | 0.688 | 1.65 | 1.38 | 0.653 | 0.614 | 0.628 | 0.558 | 0.951 | 0.6

Reference: the supplement of paper PMC10065799, “High-throughput profiling of sequence recognition by tyrosine kinases and SH2 domains using bacterial peptide display” (eLife, 2023)
